The target of assay [1] is human CD47, full length, on transfected cells (human) (UniProt Q08722). Description: FACS, HEK293 clone 293F-hCD47 1A8. On the technique in general: In flow cytometry, cells or beads pass a laser one at a time.
The target is the same in assay [2]. Description: FACS, HEK293 clone 293F-hCD47 1B4.
For assay [3] the target is unchanged. Description: FACS, HEK293 clone 293F-hCD47 1B5.
The target is the same in assay [4]. Description: FACS, HEK293 clone 293F-hCD47 1B6.
The target is the same in assay [5]. Description: FACS, HEK293 clone 293F-hCD47 1B8.
Assay [6] shares this target. Description: FACS, HEK293 clone 293F-hCD47 1C2.
The target is the same in assay [7]. Description: FACS, HEK293 clone 293F-hCD47 1C4.
Assay [8] shares this target. Description: FACS, HEK293 clone 293F-hCD47 1C8.
For assay [9] the target is unchanged. Description: FACS, HEK293 clone 293F-hCD47 1E8.
Assay [10] shares this target. Description: FACS, HEK293 clone 293F-hCD47 1F6.
Assay [11] has the same target. Description: FACS, HEK293 clone 293F-hCD47 1F8.
For assay [12] the target is unchanged. Description: FACS, HEK293 clone 293F-hCD47 2E2.
Assay [13] has the same target. Description: FACS, HEK293 clone 293F-hCD47 1B11.
For assay [14] the target is unchanged. Description: FACS, HEK293 clone 293F-hCD47 1D10.
Assay [15] shares this target. Description: FACS, HEK293 clone 293F-hCD47 1F10.
Assay [16] shares this target. Description: FACS, HEK293 clone 293F-hCD47 1F11.
The target of assay [17] is SIRPα protein with hFc tag (SIRPα-hFc) (UniProt P78324). Description: ELISA on coated SIRPα-hFc 1 µg/mL; control 1 µg/ml.
SIRPα protein with hFc tag (SIRPα-hFc), sequence (P78324 31-370): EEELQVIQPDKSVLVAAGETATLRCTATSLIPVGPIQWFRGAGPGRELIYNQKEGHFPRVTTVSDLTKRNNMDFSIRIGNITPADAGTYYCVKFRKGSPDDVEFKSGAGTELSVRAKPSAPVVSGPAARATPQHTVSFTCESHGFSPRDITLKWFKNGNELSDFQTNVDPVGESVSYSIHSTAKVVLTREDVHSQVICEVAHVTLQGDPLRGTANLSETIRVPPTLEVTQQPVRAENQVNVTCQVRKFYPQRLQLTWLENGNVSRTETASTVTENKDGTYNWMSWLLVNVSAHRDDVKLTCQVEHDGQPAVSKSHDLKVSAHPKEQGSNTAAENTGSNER
The target is the same in assay [18]. Description: ELISA on coated SIRPα-hFc 1 µg/mL; control 0.2 µg/ml. Background: In an ELISA, binding on a coated surface is turned into a signal by an enzyme label.
Assay [19] shares this target. Description: ELISA on coated SIRPα-hFc 1 µg/mL; control 0.04 µg/ml.
Assay [20] shares this target. Description: ELISA on coated SIRPα-hFc 1 µg/mL; control 0.008 µg/ml.
The target is the same in assay [21]. Description: ELISA on coated SIRPα-hFc 1 µg/mL; control 0.0001 µg/ml.
Assay [22] has the same target. Description: ELISA on coated SIRPα-hFc 1 µg/mL; control 0.0003 µg/ml.
For assay [23] the target is unchanged. Description: ELISA on coated SIRPα-hFc 1 µg/mL; control 0.0016 µg/ml.
Assay [24] shares this target. Description: ELISA on coated SIRPα-hFc 1 µg/mL; control 0.00001 µg/ml.

IgG subtype control (antibody): the Mean fluorescence intensity in assay [1] worked out at 3.2; in [2] it was 2.56; in assay [3] it was 2.72; in [4] it was 3.22; in assay [5], 3.11; in [6], 2.47. The Mean fluorescence intensity in assay [7] is 3.84; in [8] it was 2.15; in assay [9], 2.79; in [10], 2.94; in assay [11], 2.66; in assay [12] it was 2.79. The Mean fluorescence intensity is 2.87 in assay [13], 3.19 in assay [14], 3.64 in [15] and 3.73 in assay [16]. Besides, the Positive cells (%) in [1] came out at 2.19%; in assay [2] it was 1.6%; in assay [3], 0.85%; in assay [4], 5.7%; in [5] it was 3.08%; in assay [6], 1.85%. Moreover, the Positive cells (%) in assay [7] was determined as 2.55%; in assay [8], 0.81%; in assay [9], 1.29%; in [10], 2.35%; in assay [11], 3.13%; in [12] it was 2.42%. The Positive cells (%) in assay [13] turned out to be 4.7%; in [14], 2.38%; in assay [15], 3.85%; in assay [16], 3.78%.
Take “Control protein (non-CD47 fusion protein)”: the OD450 nm in assay [17] was 0.19; in assay [18], 0.11; in assay [19], 0.1; in assay [20], 0.06; in [21], 0.07; in assay [22], 0.07. For the same substance, the OD450 nm stood at 0.08 in assay [23] and 0.06 in assay [24].
